# Data reported in publication PMC7701066.
# Assays:
# [1] = target: Fc-fused Reelin heterodimer (FLAG-WT / His6-K2467A central fragment, Fc retained) (UniProt Q60841); assay: BLI; BLItz; Fc-fused heterodimer on a Protein A biosensor; dilution series (11 concentrations) of ecto-VLDLR; 20 mM Hepes pH 7.4, 150 mM NaCl, 1 mM CaCl2, 0.2% Tween20, 0.1% BSA; association 45 s, dissociation 60 s without CaCl2 and with 1 mM EDTA; maximum responses fitted to one site specific binding; triplicate
# [2] = target: His6-tagged K2467A mutant central Reelin fragment (Reelin repeats 3–6), Fc removed (UniProt Q60841); assay: SEC; Superose 6 Increase 10/300 GL, A280 traces of heterodimer, FLAG-WT homodimer and His6-K2467A homodimer
# [3] = target: FLAG-tagged wild-type central Reelin fragment (Reelin repeats 3–6), Fc removed (UniProt Q60841); assay: as above
substance,measurement,setting,value
purified extracellular domain of VLDLR (very-low density lipoprotein receptor) (from UniProt P98155 28-797),Kd,[1],129 nM
"His6-tagged K2467A mutant central Reelin fragment (Reelin repeats 3–6), Fc removed (from UniProt Q60841 27-3461) (domain or fragment)",stoichiometry N,[2],2
"FLAG-tagged wild-type central Reelin fragment (Reelin repeats 3–6), Fc removed (from UniProt Q60841 27-3461) (domain or fragment)",stoichiometry N,[3],2
